Sequences and labels used below:
T1: PTPRG-Fc (ECD of human PTPRG, aa 20-736, fused to human Fc gamma 1) (human, UniProt P23470 20-736)
T1 construct: Made in-house in Expi293 cells; Used in ELISA and SPR; also called recombinant PTPRG-Fc; PTRPG; not shown: human IgG1 Fc (Fc gamma 1) after the hinge
T1 sequence: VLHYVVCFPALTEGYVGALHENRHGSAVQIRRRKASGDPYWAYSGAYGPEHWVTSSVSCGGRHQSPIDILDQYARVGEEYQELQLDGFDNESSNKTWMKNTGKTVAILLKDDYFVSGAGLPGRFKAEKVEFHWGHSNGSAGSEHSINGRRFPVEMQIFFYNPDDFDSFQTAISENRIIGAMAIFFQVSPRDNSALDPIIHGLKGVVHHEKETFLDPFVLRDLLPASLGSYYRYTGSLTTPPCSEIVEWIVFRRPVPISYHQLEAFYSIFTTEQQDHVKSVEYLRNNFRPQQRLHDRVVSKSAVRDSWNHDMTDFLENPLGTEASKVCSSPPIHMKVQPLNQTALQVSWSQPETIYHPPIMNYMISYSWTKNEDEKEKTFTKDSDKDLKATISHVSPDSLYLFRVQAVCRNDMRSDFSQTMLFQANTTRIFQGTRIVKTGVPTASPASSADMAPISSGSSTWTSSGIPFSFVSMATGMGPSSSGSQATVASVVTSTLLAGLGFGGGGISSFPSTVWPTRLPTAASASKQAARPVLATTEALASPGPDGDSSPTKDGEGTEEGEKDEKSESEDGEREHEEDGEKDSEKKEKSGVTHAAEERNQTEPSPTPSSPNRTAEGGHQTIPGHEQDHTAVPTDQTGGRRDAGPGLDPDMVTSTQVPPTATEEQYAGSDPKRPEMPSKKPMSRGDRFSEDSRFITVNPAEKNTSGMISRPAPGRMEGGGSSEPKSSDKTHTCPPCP

B1: HW-25 Fab (chimeric rabbit/human, His-tagged) (Fab, V domains shown)
VH: QSLEESGGRLVTPGTPLTLTCTVSGFSLSSYAMGWVRQAPGKGLEWIGIIDSRGSTYYATWAKGRFTISKTSTTVDLKITSPTTEDTATYFCAREDSYYYDSFNLWGPGTLVTVSS
VL: SFVLTQPASVQVNLGQTVSLTCTADTLSRRYASWYQQKPGQAPVLLIYRDTSRPSGVPDRFSGSSSGNTATLTISGAQAGDEADYYCATSDGSGSSYQCVFGGGTQLTVT
notes: Monovalent Fab: rbVH-huCH1 and rbVL-huCL, His-tagged, made in E. coli from pET11a
B2: HW-1 Fab (chimeric rabbit/human, His-tagged) (Fab, V domains shown)
VH: QSLEESGGGLFKPTDTLTLTCTASGFSLGSSYAISWVRQAPGKELEWIGTIDSGRAYYARWAKSRSTITRNTNENTVTLKMTSLTAADTATYFCARDLIPTYSQDIWGPGTLVTISS
VL: SFVLTQPASVQVNLGQTVSLTCTADTLSRRYASWYQQKPGQAPVLLIYRDTSRPSGVPDRFSGSSSGNTATLTISGAQAGDEADYYCATSDGSGNSYQYVFGGGTQLTVT
notes: as for B1
B3: HW-42 Fab (chimeric rabbit/human, His-tagged) (Fab, V domains shown)
VH: QSVKESEGGLFKPADTLTLTCTVSGFSLSSNEISWVRQAPGEGLEYIGIIDTGGRAYYAVWARSRSTITRNTNLNTVTLKMTSLTAADTATYFCARGGVDTEWYAFSSWGPGTLVTVPS
VL: SFVLTQPASVQVNLGQTVSLTCTADTLSRRYASWYQQKPGQAPVLLIFRDTSRPSGVPDRFSGSSSGDTATLTISGAQAGDEADYYCATSDGSGSNYQYVFGGGTQLTVT
notes: as for B1
B4: HW-70 Fab (chimeric rabbit/human, His-tagged) (Fab, V domains shown)
VH: QSLEESGGRLVTPGTPLTLTCTVSGFSLSSNAMSWVRQAPGKGLEWIGTIDGYGYTYYASWAKGRFTVSKTSTTVDLKITSPTTEDTATYFCAREIYLGSNFWGPGTLVTISS
VL: SFVLTQPASVQVNLGQTVSLTCTADTLSRRYASWYQQKPGQAPVLLIYRDTSRPSGVPDRFSGSSSGNTATLTISGAQAGDEADYYCATADGSGSSYQFVFGGGTQLTVT
notes: as for B1
B5: HW-17 Fab (chimeric rabbit/human, His-tagged) (Fab, V domains shown)
VH: QSLGESRGRLVTPDETLTLTCTVSGIDLSSNAMSWVRQAPGEGLEWIGTINTGGRAYYASWAKGRFTISRTSTTVDLKMTSLTTEDTATYFCARERYSDGRAYDIWGPGTLVTISS
VL: SFVLTQPASVQVNLGQTVSLTCTADTLSRRYASWYQQKPGQAPVLLIYTDSNRPSGIPDRFSGSSSGNTATLTISGAQAGDEADYYCATDDGSGSIYQYVFGGGTQLTVT
notes: as for B1

In general, Kd refers to a measure of binding affinity in units of concentration. By koff is commonly meant a measure of how fast the partners let go of each other. A lower koff goes with a long-lived complex. In general, kon refers to a measure of how fast the partners come together. A low value points to slower complex formation.

This test has as its target T1, PTPRG-Fc (ECD of human PTPRG, aa …). Put plainly: SPR, Biacore X100; PTPRG-Fc captured by anti-human Fc on CM5, Fab injected; mean of triplicates (SD). As to the method: A Biacore X100 instrument was used to determine the monovalent affinities of the C-1 cluster of Fabs for recombinant PTPRG-Fc, as previously described. […] Each experiment was repeated in triplicate. Rate constants (kₒₙ, koff, and Kd) were calculated using the Biacore evaluation software (Cytiva).
Background: In SPR one partner is held on a chip, and binding of the other changes the refractive index at the surface.
The molecule B1 showed a Kd of 0.65 nM, a koff of 0.000367 s⁻¹ and a kon of 566000 M⁻¹ s⁻¹.

For the molecule B2, the Kd stood at 2.54 nM, the koff amounted to 0.000482 s⁻¹ and the kon amounted to 195000 M⁻¹ s⁻¹.

For the molecule B3, the Kd was determined as 28.9 nM, the koff was 0.00429 s⁻¹ and the kon was 149000 M⁻¹ s⁻¹.

B4: binding was characterised by a dissociation constant (Kd) of 19.1 nM, the koff amounted to 0.0153 s⁻¹ and the kon was 826000 M⁻¹ s⁻¹.

Take B5: the affinity, expressed as Kd, was 9.34 nM; the koff amounted to 0.00158 s⁻¹; the kon was found to be 169000 M⁻¹ s⁻¹.

(Values after patent US20260049134A1 (UNIVERSITY OF FLORIDA RESEARCH FOUNDATION, published 2026).)
